From patent US20130224191A1, “NOTUM PROTEIN MODULATORS AND METHODS OF USE” (priority 2010, published 2013)

What was measured:
[1] = system: HCT-116 cells; experiment: Cell survival/proliferation, CellTiterGlo, HCT-116; format: cell-based, human
Description: To determine whether Notum protein impacts cell proliferation and/or apoptosis of human colorectal cancer cells, HCT-116 cells or mouse lineage-depleted NTX tumor cells (i.e. human tumor cells) were plated as described below and exposed to recombinant hNotum (e.g. hNotum-His or hNotum-hFc) and anti-Notum antibodies. Cell numbers were then assessed 12-14 days later.
Cells were then incubated for 14 days at 37° C., 5% CO2 and 5% O2 and the number of viable cells was assessed using Promega's CellTiterGlo assay kit per the manufacturer's instructions. For the HCT-116 cell line (a commercially available colorectal tumor cell line), cells were plated at 2,000 cells per well in DMEM+1% FBS, followed 24-hours later by the addition of serum free DMEM containing recombinant human Notum in the presence or absence of monoclonal antibodies SC2.D2.2 or SC2.10B3. HCT-116 cells were then incubated for 12 days at 37° C., 5% CO2 and cell viability was assessed with Promega's CellTiterGlo assay kit. Higher readings are indicative of higher viable cell counts.

[2] = biological target: T1, hNotum (Homo sapiens, UniProt Q6P988); experiment: Inhibition of hNotum esterase activity; format: biochemical; conditions: preincubation with hNotum
T1 construct: 8x-His; Strep-tag II; IgK signal peptide/leader of the pSEC-CAG vector (N); made in house; host or cells: HEK293T (adherent) / suspension 293 cells
T1 sequence (Q6P988 20-496): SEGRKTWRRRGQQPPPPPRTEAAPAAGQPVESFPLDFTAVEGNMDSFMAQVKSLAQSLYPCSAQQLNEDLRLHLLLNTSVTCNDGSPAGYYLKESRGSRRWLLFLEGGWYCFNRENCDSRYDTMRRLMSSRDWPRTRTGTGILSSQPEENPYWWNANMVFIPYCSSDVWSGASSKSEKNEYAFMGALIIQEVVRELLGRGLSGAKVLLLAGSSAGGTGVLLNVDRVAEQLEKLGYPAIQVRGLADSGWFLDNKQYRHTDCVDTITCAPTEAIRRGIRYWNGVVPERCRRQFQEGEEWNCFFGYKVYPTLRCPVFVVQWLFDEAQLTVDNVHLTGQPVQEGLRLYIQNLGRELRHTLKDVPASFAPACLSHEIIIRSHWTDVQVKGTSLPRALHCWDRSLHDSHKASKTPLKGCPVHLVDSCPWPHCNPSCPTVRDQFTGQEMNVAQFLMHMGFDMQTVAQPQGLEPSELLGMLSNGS
Description: Briefly, PNPA or PNPB were dissolved/diluted in isopropanol to final concentrations of 10 mM. These substrate solutions were diluted 1:10 into assay buffer (0.1% gum arabic, 2.3 mg/mL sodium dexoycholate, 1×PBS) and incubated with defined amounts of hNotum enzyme, and the enzymatic release of the chromophore p-nitrophenol monitored by absorbance measurements at 405 nm.
The results presented immediately above indicate that the measured esterase activity may be used to provide an assay that allows for the further characterization of the disclosed Notum modulators. […] As may be seen in FIG. 18A an increase in hNotum levels increases measured enzymatic activity even, to some extent, in the case where the SC2.D2.2 antibody is present. Conversely, FIG. 18B provides a dose response curve of measured enzymatic activity where the amount of hNotum is fixed at 1 μg/mL and the concentration of SC2.D2.2 is varied. […] In contrast a control antibody (MOPC) has no effect on the esterase activity of Notum (data not shown).

[3] = biological target: T1, hNotum; experiment: Inhibition of hNotum lipase activity (Tween 20); format: biochemical; conditions: preincubation, various concentrations
Description: Briefly, recombinant hNotum (1 μg/well) was added to an assay buffer containing 50 mM Tris, pH 7.4, 33.3 mM CaCl2, and 0.33% Tween-20. When the Tween 20 monolauryl group is cleaved by lipases (e.g. hNotum), the free fatty acid forms an insoluble complex with the Ca^2+ cations resulting in a turbid solution, the OD of which can be measured at 405 nm to provide a measure of lipase activity. As a positive control, the activity of porcine pancreatic lipase (Sigma Aldrich) was measured in the same assay.
In order to take advantage of this enzymatic property and further exemplify the properties of the present invention, an assay was run to determine the effects of Notum modulators on the lipolytic activity of Notum. To that end, various concentrations of SC2.D2.2 were preincubated with hNotum for a set period prior to adding the mixture to the assay buffer and measuring the resulting enzymatic activity as described above. The results of the assay are graphically represented in FIG. 20

[4] = system: human Notum D141N, D141S; experiment: Neutralization of point mutated human Notum, 4-MUH assay; format: biochemical
Description: In addition to the assays described in Examples 23 and 24, a fluorescent esterase substrate, 4-methylumbelliferyl heptanoate (Sigma), can be used to measure the activity of hydrolases using standard assay conditions (Richardson and Smith, 2007, PMID: 17620441; Jacks and Kircher, 1967, PMID: 5582971). Briefly, 4-MUH was dissolved in DMSO to a final concentration of 1.2 mM. This substrate was diluted 1:10 into assay buffer (0.1M Tris, pH 7.5, 50 mM NaCl, 0.05% Brij) and incubated with defined amounts of Notum enzyme or point-mutated Notum enzymes, and enzymatic release of the fluorescent molecule 4-methylumbelliferone monitored (355 nm excitation, 460 nm emission) using a Wallac Victor3 Multilabel Counter (Perkin Elmer).
Similarly, the macaque residue at this position was point mutated to the human residue (N141D). […] However, these point mutants differed in their ability to be neutralized by SC2.D2.2 (FIG. 26).

[5] = biological target: T2, hNotum-His (His tagged human Notum) (human, UniProt Q6P988 20-496); experiment: sandwich ELISA: SC2.D2.2 coated at 2 ug/ml captures Notum-His, detected with biotinylated mouse polyclonal anti-Notum 0.5 ug/ml and streptavidin-HRP, TMB, OD450
T2 construct: also called human Notum-His; NOTUM-StrepHis
T2 sequence: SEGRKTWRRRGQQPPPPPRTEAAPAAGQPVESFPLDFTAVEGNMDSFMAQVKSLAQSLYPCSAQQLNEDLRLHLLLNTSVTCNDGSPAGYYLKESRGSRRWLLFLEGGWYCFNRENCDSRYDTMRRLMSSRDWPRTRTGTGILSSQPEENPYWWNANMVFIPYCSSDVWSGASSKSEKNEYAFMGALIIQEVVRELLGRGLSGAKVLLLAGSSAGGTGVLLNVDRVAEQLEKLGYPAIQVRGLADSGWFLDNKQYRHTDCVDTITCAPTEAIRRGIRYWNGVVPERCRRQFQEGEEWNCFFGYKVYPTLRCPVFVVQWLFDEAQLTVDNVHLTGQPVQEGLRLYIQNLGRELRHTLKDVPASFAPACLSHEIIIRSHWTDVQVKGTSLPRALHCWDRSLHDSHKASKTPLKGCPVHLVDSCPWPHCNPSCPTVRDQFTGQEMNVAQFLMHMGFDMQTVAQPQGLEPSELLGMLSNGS
Description: More specifically, murine SC2.D2.2 was absorbed on standard ELISA plates at 2 μg/ml in a 50 mM sodium carbonate buffer at pH9.6. After washing the plates with PBS containing 0.05% (v/v) Tween-20 (PBST), the plates were blocked in PBS containing 2% (w/v) bovine serum albumin (BSA buffer) for two hours at ambient temperature. The content of the plates was flicked off, and purified recombinant Notum-His at varying concentrations (i.e., to provide the standard curve) or patient samples diluted in BSA buffer were added to the plates for a minimum of two hours at ambient temperature. The plates were washed in PBST before adding Notum-specific mouse polyclonal antibody conjugated to biotin at 0.5 μg/ml in BSA buffer. After incubation for one hour, the plate was washed again with PBST and incubated for 30 minutes with a 1:2000 dilution of Streptavidin conjugated to horse radish peroxidase (Jackson Immuno Research). After washing all plates twice with PBST, 100 μl TMB substrate (Thermo Scientific) was added to the wells and incubated for 30 minutes in the dark. Color reaction was stopped by adding 100 μl/well 2M sulfuric acid. Absorbance at OD 450 nm was read in all wells using a standard plate reader.

B1: SC2.D2.2 (antibody, V domains shown)
VH: DVQLVESGGGLVQPGGSRKISCAASGFTFSSYGMHWVRQAPEKGLEWVAYISSSTVTTYYADTVKGRFTISRDNANNTLFLQMTSLRSEDTAMYYCSRQNWDGGYFDVWGAGTTVTVSS
VL: DIVLTQSLASLAVSLGQRATISCRASKSVSSSGYSYMHWYQQKPGQPPKLLIYLASNLESGVPARFSGSGSGTDFTLNIHPVEEEDAATYYCQHSRALPLTFGAGTKLELKR
notes: also called murine SC2.D2.2
effect on hNotum induced increase in cell numbers [1]: blocked
effect on esterase activity of hNotum [2]: greatly reduced esterase activity
effect on lipase activity of Notum [3]: substantially eliminate the lipase activity of Notum
neutralization of mutant Notum protein [4]: eliminated the ability of SC2.D2.2 to neutralize the resultant protein
EC50 (read off the curve) [5]: ~9 ng/mL
